# Measurements as given in IntAct's records for PubMed 29039417.
# B1: Protein PTHB1 (Homo sapiens), Q3SYG4 (parent)
# chain: MSLFKARDWWSTILGDKEEFDQGCLCLANVDNSGNGQDKIIVGSFMGYLRIFSPHPAKTGDGAQAEDLLLEVDLRDPVLQVEVGKFVSGTEMLHLAVLHSRKLCVYSVSGTLGNVEHGNQCQMKLMYEHNLQRTACNMTYGSFGGVKGRDLICIQSMDGMLMVFEQESYAFGRFLPGFLLPGPLAYSSRTDSFLTVSSCQQVESYKYQVLAFATDADKRQETEQQKLGSGKRLVVDWTLNIGEQALDICIVSFNQSASSVFVLGERNFFCLKDNGQIRFMKKLDWSPSCFLPYCSVSEGTINTLIGNHNNMLHIYQDVTLKWATQLPHIPVAVRVGCLHDLKGVIVTLSDDGHLQCSYLGTDPSLFQAPNVQSRELNYDELDVEMKELQKIIKDVNKSQGVWPMTEREDDLNVSVVVSPNFDSVSQATDVEVGTDLVPSVTVKVTLQNRVILQKAKLSVYVQPPLELTCDQFTFEFMTPDLTRTVSFSVYLKRSYTPSELEGNAVVSYSRPTDRNPDGIPRVIQCKFRLPLKLICLPGQPSKTASHKITIDTNKSPVSLLSLFPGFASQSDDDQVNVMGFHFLGGARITVLASKTSQRYRIQSEQFEDLWLITNELILRLQEYFEKQGVKDFACSFSGSIPLQEYFELIDHHFELRINGEKLEELLSERAVQFRAIQRRLLARFKDKTPAPLQHLDTLLDGTYKQVIALADAVEENQGNLFQSFTRLKSATHLVILLIALWQKLSADQVAILEAAFLPLQEDTQELGWEETVDAAISHLLKTCLSKSSKEQALNLNSQLNIPKDTSQLKKHITLLCDRLSKGGRLCLSTDAAAPQTMVMPGGCTTIPESDLEERSVEQDSTELFTNHRHLTAETPRPEVSPLQGVSE
# partner: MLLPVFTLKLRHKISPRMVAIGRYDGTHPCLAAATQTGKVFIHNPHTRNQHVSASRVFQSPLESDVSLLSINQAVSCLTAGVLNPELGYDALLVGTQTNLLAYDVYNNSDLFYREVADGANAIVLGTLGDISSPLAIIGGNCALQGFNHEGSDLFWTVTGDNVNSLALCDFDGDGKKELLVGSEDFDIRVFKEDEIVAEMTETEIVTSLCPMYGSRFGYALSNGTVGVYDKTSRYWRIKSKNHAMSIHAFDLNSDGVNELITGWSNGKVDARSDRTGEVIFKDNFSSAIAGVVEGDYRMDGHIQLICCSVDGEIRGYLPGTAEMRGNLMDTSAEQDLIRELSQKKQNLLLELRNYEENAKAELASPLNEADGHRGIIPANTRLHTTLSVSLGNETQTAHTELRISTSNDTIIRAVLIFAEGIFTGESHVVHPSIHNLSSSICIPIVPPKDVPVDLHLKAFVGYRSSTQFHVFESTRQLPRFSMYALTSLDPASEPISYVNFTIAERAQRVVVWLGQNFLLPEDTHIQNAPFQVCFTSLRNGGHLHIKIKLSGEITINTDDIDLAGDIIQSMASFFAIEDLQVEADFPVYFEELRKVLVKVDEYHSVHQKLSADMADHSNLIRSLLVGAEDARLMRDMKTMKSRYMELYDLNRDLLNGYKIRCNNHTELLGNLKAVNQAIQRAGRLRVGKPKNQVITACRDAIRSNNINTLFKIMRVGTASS
# Variants of: B1
# Conditions: with bbs2_human BBS2, Q9BXC9
row,Variant,effect of a mutation on the interaction
1,S568K,with no effect
2,Q569A,with no effect
3,Q569E,with no effect
4,Q569K,with no effect
5,S570A,with no effect
6,S570E,with no effect
7,S570K,with no effect
8,D571A,with no effect
9,D571E,with no effect
10,D571K,with no effect
11,D572A,with no effect
12,D572E,with no effect
13,D572K,with no effect
14,D573A,with no effect
15,D573E,with no effect
16,D573K,with no effect
17,Q574A,with no effect
18,Q574E,with no effect
19,Q574K,with no effect
20,Q574L,disrupting interaction strength
21,V575A,with no effect
22,V575E,with no effect
23,V575K,with no effect
24,N576A,with no effect
25,N576E,with no effect
26,N576K,with no effect

row,Variant,effect of a mutation on the interaction
1,V577A,with no effect
2,V577E,with no effect
3,V577K,with no effect
4,M578A,with no effect
5,M578E,with no effect
6,M578K,disrupting interaction strength
7,G579A,with no effect
8,G579E,with no effect
9,G579K,with no effect
10,F580A,with no effect
11,F580E,with no effect
12,F580K,with no effect
13,H581A,with no effect
14,H581E,with no effect
15,H581K,with no effect
16,H581P,disrupting interaction strength
17,H581Y,disrupting interaction strength
18,F582A,with no effect
19,F582E,with no effect
20,F582K,with no effect
21,L583A,with no effect
22,L583E,with no effect
23,L583K,with no effect
24,G584A,with no effect
25,G584E,with no effect
26,G584K,with no effect

row,Variant,effect of a mutation on the interaction
1,G585A,with no effect
2,G585E,with no effect
3,G585K,with no effect
4,G585R,disrupting interaction strength
5,A586E,with no effect
6,A586K,with no effect
7,R587A,with no effect
8,R587E,with no effect
9,R587K,with no effect
10,R587T,disrupting interaction strength
11,I588A,with no effect
12,I588E,with no effect
13,I588K,with no effect
14,T589A,with no effect
15,T589E,with no effect
16,T589K,with no effect
17,T589S,disrupting interaction strength
18,V590A,with no effect
19,V590E,with no effect
20,V590K,with no effect
21,L591A,with no effect
22,L591E,with no effect
23,L591K,with no effect
24,A592E,with no effect
25,A592K,with no effect
26,S593A,with no effect

row,Variant,effect of a mutation on the interaction
1,S593E,with no effect
2,S593K,with no effect
3,K594A,with no effect
4,K594E,with no effect
5,T595A,with no effect
6,T595E,with no effect
7,T595I,disrupting interaction strength
8,T595K,with no effect
9,T595S,disrupting interaction strength
10,S596A,with no effect
11,S596E,with no effect
12,S596K,with no effect
13,Q597A,with no effect
14,Q597E,with no effect
15,Q597K,with no effect
16,Q597R,disrupting interaction strength
17,R598A,with no effect
18,R598E,with no effect
19,R598K,with no effect
20,R598L,disrupting interaction strength
21,Y599A,with no effect
22,Y599E,with no effect
23,Y599K,with no effect
24,R600A,with no effect
25,R600E,with no effect
26,R600G,disrupting interaction strength

row,Variant,effect of a mutation on the interaction
1,R600K,with no effect
2,I601A,with no effect
3,I601E,with no effect
4,I601K,with no effect
5,Q602A,with no effect
6,Q602E,with no effect
7,Q602K,with no effect
8,Q602L,disrupting interaction strength
9,S603A,with no effect
10,S603E,with no effect
11,S603K,with no effect
12,E604A,with no effect
13,E604K,with no effect
14,Q605A,with no effect
15,Q605E,with no effect
16,Q605K,with no effect
17,F606A,with no effect
18,F606E,with no effect
19,F606K,with no effect
20,E607A,with no effect
21,E607K,with no effect
22,D608A,with no effect
23,D608E,with no effect
24,D608K,with no effect
25,L609A,with no effect
26,L609E,with no effect

row,Variant,effect of a mutation on the interaction
1,L609K,with no effect
2,W610A,with no effect
3,W610E,with no effect
4,W610K,with no effect
5,L611A,with no effect
6,L611E,with no effect
7,L611K,with no effect
8,I612A,with no effect
9,I612E,with no effect
10,I612K,with no effect
11,T613A,with no effect
12,T613E,with no effect
13,T613I,disrupting interaction strength
14,T613K,with no effect
15,N614A,with no effect
16,N614E,with no effect
17,N614K,with no effect
18,E615A,with no effect
19,E615K,with no effect
20,L616A,with no effect
21,L616E,with no effect
22,L616K,with no effect
23,I617A,with no effect
24,I617E,with no effect
25,I617K,with no effect
26,L618A,with no effect

row,Variant,effect of a mutation on the interaction
1,L618E,with no effect
2,L618K,with no effect
3,R619A,with no effect
4,R619E,with no effect
5,R619K,with no effect
6,L620A,with no effect
7,L620E,with no effect
8,L620K,with no effect
9,Q621A,with no effect
10,Q621E,with no effect
11,Q621K,with no effect
12,E622A,with no effect
13,E622K,with no effect
14,Y623A,with no effect
15,Y623E,with no effect
16,Y623K,with no effect
17,F624A,with no effect
18,F624E,with no effect
19,F624K,with no effect
20,F624N,disrupting interaction strength
21,E625A,with no effect
22,E625K,with no effect
23,K626A,with no effect
24,K626E,with no effect
